This passage reports average filament length results from paper doi:10.1101/2021.04.23.441157.

Common to all, as to test: TIRF microscopy of filaments on supported lipid bilayers
Test [1] addresses Cdc11a-Cdc11bCTE-capped septin octamer (Ashbya gossypii | S. cerevisiae) (UniProt P32468).
In test [2] the target is Cdc11b-Cdc11aCTE-capped septin octamer (Ashbya gossypii | S. cerevisiae) (UniProt P32468).
Test [3] addresses Cdc11a-capped septin hetero-octamer (recombinant Ashbya gossypii septin complex) (Ashbya gossypii | S. cerevisiae) (UniProt P32468).
In test [4] the target is Cdc11b-capped septin hetero-octamer (recombinant Ashbya gossypii septin complex) (Ashbya gossypii | S. cerevisiae) (UniProt P32468).

In test [1], “Cdc11a-Cdc11bCTE-capped septin octamer (from UniProt P32468 1-407) (complex)” returned an average filament length at steady state of 0.94 µm and an average filament length at steady state, in octamers of 29 octamers.
In test [2], “Cdc11b-Cdc11aCTE-capped septin octamer (from UniProt P32468 1-407) (complex)” gave an average filament length at steady state of 0.55 µm and an average filament length at steady state, in octamers of 17 octamers.
With “Cdc11a-capped septin hetero-octamer (recombinant Ashbya gossypii septin complex) (from UniProt P32468 1-407)”, in test [3], the average filament length at steady state is 0.72 µm and the average filament length at steady state, in octamers is 23 octamers.
On to “Cdc11b-capped septin hetero-octamer (recombinant Ashbya gossypii septin complex) (from UniProt P32468 1-407)”, for which, in test [4], the average filament length at steady state amounted to 0.52 µm and the average filament length at steady state, in octamers was 16 octamers.
